In the supplement of paper PMC9170038:

System: MS2 coat protein
Assay: apparent KD of MS2 coat protein; designed switch direction (-1 OFF switch, 1 ON switch): -1; higher = weaker reporter binding
How it was run: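 The apparent KD reported per design is the median over clusters of curve fits to normalised cluster fluorescence. The RNA switches were transcribed on Illumina chips by stalled E. coli RNA polymerase. SNAP-549-labelled MS2 coat protein was titrated from 0.7 or 1.5 nM, doubling up to 3 µM, in Tris-HCl pH 7.5 buffer containing KCl, MgCl2, BSA, DTT, tRNA and Tween-20, with no input, 200 uM small-molecule ligand, or an oligonucleotide input.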

[1] = input ligand: microRNA oligo, concentration not stated
[2] = Eterna round: R95, input ligand: FMN 200 uM
[3] = Eterna round: R95, input ligand: microRNA oligo, concentration not stated
[4] = Eterna round: R95, input ligand: none

| Sequence | apparent KD of MS2 coat protein (input ligand: FMN 200 uM) [nM] | apparent KD of MS2 coat protein [1] [nM] | apparent KD of MS2 coat protein (input ligand: none) [nM] | apparent KD of MS2 coat protein [2] [nM] | apparent KD of MS2 coat protein [3] [nM] | apparent KD of MS2 coat protein [4] [nM] |
| --- | --- | --- | --- | --- | --- | --- |
| CAAGAUUACUGAGGAUAUCCUAGUUUAUCUCAGGGAGAAGGCGGACUCAACAUGAGGAUCACCCAUGUAAGACGGGUACUAGAG [Ex NG1 #15] (Eterna round: R96, puzzle: Exclusion NG 1) | 84.8 | 68.4 | 43.2 | – | – | – |
| AAAUACAAGUAAAGAUCUUACAUGAGGAUCACCCAUGUGCUCGUCUUAUAAAGUACUAUCACGAAAGUGAUAGUACA [Sensor 3, v1 - 25] (puzzle: Sensor v3, turn-off variant 1) | – | – | – | 15.9 | 159 | 18.4 |
| CUCAUACAUGAGGAUCACCCAUGUGAGGAUAUACUCCGCACCACACAGGUCGGGUAGCGUAGAAGGUAUUGGGU [Eternabot (L1) Solution 85] (Eterna round: R97, puzzle: Exclusion 1) | 96.3 | – | 168 | – | – | – |
| GAUCAUGCAGGAUAUGCAGUAACCAUGAAAACAUGGUUGCAACAUGAGGAUCACCCAUGUAGAAGGGCAUGAUC [Omei Ex2 A3] (Eterna round: R97, puzzle: Exclusion 2) | 10.8 | – | 13.9 | – | – | – |
| ACACAGCGAGGAUAUACAUGAGGAUCACCCAUGUGGCGGCCGUUACGGUAGCACUAGUGUAGAAGGCGCAUUGG [EX3 #35] (Eterna round: R97, puzzle: Exclusion 3) | 155 | – | 192 | – | – | – |
| AAGAGGAUUAUAGGAUAUGAAGCUAAAACGGCGUUAGAAGGGUAUACAGAGUUACAUGAGGAUCACCCAUGUUGUGAUUUCUAA [AK ExNG1-V2-4.3] (Eterna round: R96, puzzle: Exclusion NG 1) | 52.6 | 36.9 | 62.5 | – | – | – |
| CCUCUACAUGAGGAUCACCCAUGUGAGGAUAUCUCGGAGCAGCCACUUAAGGCACUCCAGAGAAGGCACGUGUA [Oreresbe] (puzzle: Exclusion 1) | – | – | – | – | 16.6 | – |
| UUUAAUUUAAUUAAGAUCACAUGAGGAUCACCCAUGUAUAUAUAGGAUAUCAGCUCGUGUAGAGCUGAGAAGGAUAUAUACAUA [ExNG3/4-A3] (Eterna round: R96, puzzle: Exclusion NG 3) | 46 | 35.9 | 101 | – | – | – |
| AAUAAUCGGGCCUUCCUAUUACAUGAGGAUCACCCAUGUCUCGAGGAUAUACCGACGCACGGUCCGUAGAAGGCGAGACCACAC [Esusbied] (Eterna round: R96, puzzle: Exclusion NG 3) | 141 | 14.5 | 24.7 | – | – | – |
| AGUAACUAUCACGAAAGUGAUAGUUACAAUAGCAGUGAAACAUGAGGAUCACCCAUGUCCUCAUUUGCUCGUCUUAU [Sensor 3 - 23] (puzzle: Sensor v3, turn-off variant 2) | – | – | – | 49.6 | 566 | 61.2 |
| AUUUUGUCAGGAUAUGAUUAGUAGGACGAGAGUGCUACUACUUAGAAGGGACAUGAGGAUCACCCAUGUAUUCC [Bring Us a Shrubbery-08] (puzzle: Exclusion 4) | – | – | – | – | 15 | – |
| GAGGAACAUGAGGAUCACCCAUGUGAGGAUAUGCAUAGUGAGGUAGUAGACGUUUAUUGCAGAAGGUACACUGA [JR_Exclu1_Sub079] (puzzle: Exclusion 1) | – | – | – | – | 25.6 | – |
| GGUCGACAUGAGGAUCACCCAUGUCAGGAUAUCGUCACUGGAGCCUCGGCUCCAGUGACGAGAAGGGAUAUGAU [E1/17-A2] (Eterna round: R97, puzzle: Exclusion 1) | 41.9 | – | 43.9 | – | – | – |
| ACAGUUUUGCAAGGAUAUCGUUUUAGUUUAUUACGAGAAGGUGCUUAAGUAAUUUCUUUGGGUUGACAUGAGGAUCACCCAUGU [JR_ExcNG1_Sub058] (Eterna round: R96, puzzle: Exclusion NG 1) | 160 | 128 | 139 | – | – | – |
| CGGAUACAUGAGGAUCACCCAUGUGAGGAUAUCGUACGUUCGUCGAAAGACGAUCGUACGAGAAGGCAUGACCG [Eli x1 4.36] (Eterna round: R97, puzzle: Exclusion 1) | 64 | – | 113 | – | – | – |
| GUAGAGUAAGGAUAUGGUGAAUAGGAUAGAAUGGUUAGAAACUAGAAGGUACAUGAGGAUCACCCAUGUAAUGU [Excluse me!!!! 23 - Jieux - Exclusion 4] (puzzle: Exclusion 4) | – | – | – | – | 20.8 | – |
| AGGUCCUUCUGGAGACAUGAGGAUCACCCAUGUCGAGUCAGCGAGGAUAUCGGUAAGACAUGUGAUGAGAAGGCGCAGACCGAU [Ex NG3 #43] (Eterna round: R96, puzzle: Exclusion NG 3) | 17.2 | 11.9 | 12.7 | – | – | – |
| ACGCAUUGCCUUUGGUAGUGCGUAACAUGAGGAUCACCCAUGUAGGAUAUGGUAGGCUUUGCUUACCAGAAGGACAUUAUAUUC [JL ENG3 1.03] (Eterna round: R96, puzzle: Exclusion NG 3) | 69.4 | 22.1 | 21.9 | – | – | – |
| AAUAACAGAGGAUAUACUGUUUUAUGUGUUUGUUGUUUUGAACAUGAGGAUCACCCAUGUAGAAGGCUGAUUAA [JMF 53] (puzzle: Exclusion 2) | – | – | – | – | 31.6 | – |
| GGCCGUAAUAAGGAUAUCACUAGCUUCGGCUAGUGAGAAGGUAUUACAUGAGGAUCACCCAUGUGAUCAGGCCA [E6/3-B1] (Eterna round: R97, puzzle: Exclusion 6) | 726 | – | 170 | – | – | – |
| GGUUGGCGAGGAUAUACAUGAGGAUCACCCAUGUGAAAAUAAAGUGAGGAAAAGAAAAGUAGAAGGCGCUGACG [Mat - Exclusion 3 - Mod of Salish D55] (puzzle: Exclusion 3) | – | – | – | 158 | 72.7 | 118 |
| UCUCAGUUAGGAUAUUUAAUGUGCCGUGAGGACACGCCUUUGAAGAAGGGACAUGAGGAUCACCCAUGUGAGUA [Eternabot (L2) Solution 44] (Eterna round: R97, puzzle: Exclusion 4) | 47.3 | – | 26.3 | – | – | – |
| CGCAUGUGAGGAUAUGUACUAGUUGAGCACAGUCAGCCAGAACAGAAGGCACAUGAGGAUCACCCAUGUGUACC [EX4 B.7] (Eterna round: R97, puzzle: Exclusion 4) | 154 | – | 22.3 | – | – | – |
| AGAUGGCGAGGAUAUACAUGAGGAUCACCCAUGUGAAGAGAUAAAGUGAGGAAGAAAAGUAGAAGGCGCUGUCA [Mat - Exclusion 3 - Mod of Salish D24] (puzzle: Exclusion 3) | – | – | – | 199 | 51.4 | 40.9 |
| CCCACAAGCUUUUUGCUCGACAUGAGGAUCACCCAUGUUGAAUGGGUUAUGUGUGUGUGAUACAUAUAUAUGGUCCU [-25.6, -50.5 kcal, A 23%] (Eterna round: R97, puzzle: Sensor, turn-off variant 1) | 201 | – | 207 | – | – | – |
| GGUGAAGCAGGAUAUGUAUCGAUAUACAUGAGGAUCACCCAUGUCAUGUUUGAAUCGCAUAUAGAAGGGCUUCACC [Exclusion 5 (FMN-MS2 slide)] (Eterna round: R97, puzzle: Exclusion 5) | 58.1 | – | 20.8 | – | – | – |
